Assay [1] addresses nerve growth factor (NGF). Kind of assay: ELISA, glycopeptide on streptavidin plate, NGF 0-60 nM, anti-NGF-HRP detection. For orientation: ELISA stands for enzyme-linked immunosorbent assay.
The target of assay [2] is nerve growth factor (NGF). The assay can be described thus: SPR, glycopeptide immobilised, NGF analyte, two-state model. In general terms: Surface plasmon resonance follows binding to a sensor surface in real time, without labels.
In assay [3] the target is nerve growth factor (NGF). Kind of assay: SPR, glycopeptide immobilised, NGF analyte, two-state model, kd1.
For assay [4], the target named is nerve growth factor (NGF). The assay can be described thus: SPR (Biacore T100), glycopeptide immobilised on streptavidin CM5 chip, NGF 11-185 nM as analyte, two-state model, ka1.
Assay [5] deals with nerve growth factor (NGF). Kind of assay: cell-based or functional assay.
The target in assay [6] is nerve growth factor (NGF). Kind of assay: SPR, two-state model, comparison of KD values with glycopeptide 1.

Primed or numbered codes have the meaning given here. [ ]: non-standard residue; d: D form. The star is where a group is joined. PE = proline (from (4R)-azidoproline) carrying a 1,2,3-triazole-linked chondroitin sulfate E (CS-E) disaccharide; Biotin = O=C1N[C@H]2[C@H](CS[C@H]2CCCCC(=O)*)N1; PEG12″ = not defined here; PEG12′ = PEG12: -

Data on three molecules can be found in US20160075746A1 (published 2016).

Chain of nerve growth factor (NGF) (chain, as listed by the source): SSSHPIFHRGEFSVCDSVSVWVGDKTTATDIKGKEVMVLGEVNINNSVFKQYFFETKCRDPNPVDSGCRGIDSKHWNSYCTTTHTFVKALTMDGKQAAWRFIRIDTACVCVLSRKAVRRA

On to {Biotin-PEG12″}-P[PE]P[PE]P[PE]P[PE]P[PE]P[PE]P[PE]P[PE]P[PE]P[PE]P[PE]P[PE]-OMe (also called agent 4; (PPE)12) [glycopeptide 4], for which the “fold increase in NGF binding affinity in comparison to 1” value in assay [1] was around 2.6 fold.

B1: glycopeptide 1 (peptide)
peptide: {Biotin-PEG12′}-[PE][PE][PE][PE][PE][PE][PE][PE][PE][PE][PE][PE]-OMe
notes: Immobilised through biotin on streptavidin in ELISA and SPR; also called agent 1; CS-E sulfated glycopeptide 1
Broadly, the Kd is a measure of binding affinity in units of concentration. As a reminder, the koff is the first-order rate constant of dissociation. High values mean fast dissociation, low ones slow dissociation. In general, kon refers to the rate constant with which the complex forms. Lower therefore signals slow association. For the molecule B1, the Kd in assay [2] was 2500 nM. Further, in assay [3], the koff came to 0.0322 s⁻¹. In assay [4], the kon was found to be 1950 M⁻¹ s⁻¹.

B2: glycopeptide 5 (peptide)
peptide: {Biotin-PEG12′}-PP[PE]PP[PE]PP[PE]PP[PE]PP[PE]PP[PE]PP[PE]PP[PE]PP[PE]PP[PE]PP[PE]PP[PE]-OMe
notes: All 12 CS-E disaccharides lie along one face of the PPII helix; also called agent 5; compound 5
For the molecule B2, the “NGF-induced TrkA phosphorylation (Western blot, pTrkA/TrkA ratio) in PC12 cells” value in assay [5] is around 40%. The same molecule displayed a Kd in assay [2] of 137 nM. For the same molecule, the “fold stronger binding to NGF than agent 1 (by KD)” value in assay [6] is around 18 fold. In assay [3], the koff came out at 0.0274 s⁻¹. For the same molecule, the “fold increase in NGF binding as compared to 1” value in assay [1] is 4.6 fold. The molecule also registered a kon in assay [4] of 46500 M⁻¹ s⁻¹.
